One molecule from CN110885376A (SHANGHAI NOVAMAB BIOPHARMACEUTICALS CO LTD, dated 2020) can be followed below.

In this experiment the target is T1, CD20 (UniProt P11836 1-297, limits assumed).
T1 construct: whole, on cells; Endogenous CD20 of Raji cells; also called 白细胞分化抗原20; 细胞表面CD20
T1 sequence (looked up): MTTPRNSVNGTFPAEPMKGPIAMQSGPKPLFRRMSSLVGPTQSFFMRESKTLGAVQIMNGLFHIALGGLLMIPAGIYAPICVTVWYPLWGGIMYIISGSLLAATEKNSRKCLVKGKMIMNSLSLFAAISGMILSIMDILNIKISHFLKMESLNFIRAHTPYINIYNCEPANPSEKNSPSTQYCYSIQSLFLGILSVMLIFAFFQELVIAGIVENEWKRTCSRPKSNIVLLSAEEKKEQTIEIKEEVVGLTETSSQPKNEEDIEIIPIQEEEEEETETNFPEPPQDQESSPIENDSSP
The experiment can be described thus: flow cytometry on Raji cells (CD47 first blocked with Nb1902), anti-hFc-FITC.

B1: 利妥昔单抗 (antibody, human IgG1, kappa, L234A L235A, V domains shown)
VH: QVQLQQPGAELVKPGASVKMSCKASGYTFTSYNMHWVKQTPGRGLEWIGAIYPGNGDTSYNQKFKGKATLTADKSSSTAYMQLSSLTSEDSAVYYCARSTYYGGDWYFNVWGAGTTVTVSA
VL: QIVLSQSPAILSASPGEKVTMTCRASSSVSYIHWFQQKPGSSPKPWIYATSNLASGVPVRFSGSGSGTSYSLTISRVEAEDAATYYCQQWTSNPPTFGGGTKLEIKR
notes: also called 对照抗体利妥昔; rituximab
B1 gave an EC50 of 5.67 µg/mL.

Usually EC50 stands for the concentration that produces a half-maximal response. A high value points to lower potency in that assay.
